5 molecules from US20260133192A1 (FRED HUTCHINSON CANCER CENTER, published 2026) can be followed below.

*1 amine or outer side, *2 acyl side, *3 side chain or, on linkers, in order; H or OH if unused. Where no end group is shown, it is not given here. [ ]: non-standard residue; d: D form. βAsp = O=C(O)[C@H](CC(=O)[*:2])N[*:1]; Cit = NC(=O)NCCC[C@H](N)C(=O)O

Common to all, as to assay: B cells sorted with PTM-peptide tetramers; PTM epitope to which the cloned antibody binds, Table 7
In assay [1] the target is T1, TFRC-1 PTM peptide DFPAA{Cit}RLYW (human).
T1 construct: Synthetic citrullinated fragment of TFRC
T1 peptide: DFPAA[Cit]RLYW
From the text:
(§1) Once the immunogenic PTM peptides targeted by autoantibodies were identified, PTM-specific autoantibodies were isolated directly from SCLC patients and sequenced (FIG. 13). To accomplish this, PTM-binding B cells were enriched from SCLC patient peripheral blood mononuclear cells using PTM-peptide tetramers. PTM-peptide tetramers were created by combining PE- or APC-labeled magnetic tetramers containing streptavidin cores with biotinylated PTM peptides identified to bind more AAb from SCLC patient plasma compared to wildtype peptides. Five different PTM peptides were included in each PTM-tetramer; 5 citrullinated TFRC peptides were conjugated to PE-tetramers and 5 isoaspartylated peptides (3 CA9, 1 PLD3 and 1 SPINK1) were conjugated to APC-tetramers. These PTM-tetramers were then incubated with pooled peripheral blood mononuclear cells (PBMCs) from 3 different SCLC patients and tetramer bound cells were isolated with magnetic microbeads. This PTM-tetramer ‘enriched’ fraction was labeled with fluorescent antibodies and fluorescence activated cell sorted (FACS) into single cells. PTM-tetramer+ B cells were sorted, heavy and light chain antibody sequences from each B cell were amplified by RT-PCR, and heavy and light chain pairs were successfully sequenced. These sequences were cloned into human IgG expression vectors for antibody production and are shown in Table 7 with the location of the CRs underlined. The sequences of the CDRs were determined using the ImMunoGeneTics (IMGT) information system domain gap align.

Assay [2] deals with T2, TFRC-2 PTM peptide DFPAAR{Cit}LYW (human).
T2 construct: Synthetic citrullinated fragment of TFRC
T2 peptide: DFPAAR[Cit]LYW
Source text: as §1

For assay [3], the target named is T3, TFRC-5 PTM peptide LND{Cit}VMRVC (human, also: biotinylated, site not given here).
T3 construct: Synthetic citrullinated fragment of TFRC; biotinylated on tetramers for B cell sorting
T3 peptide: LND[Cit]VMRVC
Source text: as §1

In assay [4] the target is T4, TFRC-4 PTM peptide LNDRVM{Cit}VEYC (human, also: biotinylated, site not given here).
T4 construct: Synthetic citrullinated fragment of TFRC; biotinylated on streptavidin tetramers for B cell sorting
T4 peptide: LNDRVM[Cit]VEYC
Source text: as §1

Assay [5] concerns the target T5, SPINK1-1 PTM peptide YNEL{iso-Asp}GCTKI (human).
T5 construct: Synthetic isoaspartylated fragment of SPINK1
T5 peptide: YNEL[βAsp]GCTKI
Source text: as §1

In assay [6] the target is T6, CA9-3 PTM peptide GV{isoAsp}SSPR (human).
T6 construct: Synthetic isoaspartylated fragment of CA9
T6 peptide: GV[βAsp]SSPR
Source text: as §1

B1: 2H5 (antibody, V domains shown)
VH: EVQLLESGGGLAQPGGSLRLSCGASGFTFSSHALSWVRLAPGKGLEWVSAISGSGDRTYYADSVKGRFTISRDNSKNMLYLQMNSLRGEDTAVYYCAKEATESYATSWGQGTLVTVSS
VL: DIQMTQSPSTLSASVGDRVTITCRASQSISSWLAWYQQKPGKAPNLLISKAFSVESGVPSTFSGSGSGTEFTLTISSLQPRDSASYYCQQYDSGWTFGQGTKVEIK
For B1, the binding result in assay [1] and in assay [2] was “binds” each time.

B2: 2H8 (antibody, V domains shown)
VH: QVQLVESGGGVVQPGRSLRLSCAASGFTFSTYGMHWVRQAPGKGLQWVAQISNDGSSKYYGDSVKGRFTISRDNSKNTLYLQMNSLRVEDTGVYYCASSGSSGTWGQGTQVTVSS
VL: EIVLTQSPATLFLFPGERVTFSCRASQSVNNYLAWYQQKPGQAPRLLIYDVSNRATGIPARFSGSGSGTDFTLTISSLDPEDFAVYFCQQRSNWPLTFGGGTKVEIK
B2: the binding result in assay [3] is “binds”.

B3: 2D2 antibody (antibody, V domains shown)
VH: QVQLVESGGGVVQPGRSLRLSCAASGFTFNSFALMWVRQAPGKGLEWVAVISNDGSNTYYADSVKGRFTISRDNSKNTLYLQMNSLRAEDTAVYYCARGSQYYGSGRYSRKQFDYWGQGTMVTVSS
VL: DIQMTQSPLSLPVTPGEPASISCRSSQSLLHADDGNTYLDWYLQKPGQSPQLLIYTLSSRASGVPDRFSGSGSGTNFTLRISRVEAEDVGVYYCMQRIESPLTFGGGTKVEIK
notes: From B cells of SCLC patient PBMCs; Labeled with CF770 for the in vivo imaging; also called 770-labeled 2D2 antibody
On to B3, for which, in assay [4], the binding result is “binds”.

B4: 1A6 (antibody, V domains shown)
VH: QAGLLESGGGVVQPGRSLRLSCAASGFTFSSYGMHWVRQAPGKGLEWVAVIWYDGSNKYYADSVKGRFTISRDNSKNTLYLQMNSLRAEDTAVYYCARGGGITGTVSRKQGMDVWGQGTLVTVSS
VL: AIQLTQSPSSLSASVGDRVTITCRASQGISSYLAWYQQKPGKAPKLLMYGASTLQSGVPSRFSGSGSGTDFTLTISSLQPEDFATYYCQQVNSYPLTFGGGTKVEIK
For the molecule B4, the binding result in assay [5] was “binds”.

B5: 1B3 (antibody, V domains shown)
VH: QVQLVESGGGLVQPGGSLRLSCAASGFTFSSYWMSWVRQAPGKGLEWVANIKQDGSEEYYVDSVKGRFTISRDNAKSLLYLQMNSLRPEDTAVYYCAGDSLPSSGWEGYFQHWGQGTLVTVSS
VL: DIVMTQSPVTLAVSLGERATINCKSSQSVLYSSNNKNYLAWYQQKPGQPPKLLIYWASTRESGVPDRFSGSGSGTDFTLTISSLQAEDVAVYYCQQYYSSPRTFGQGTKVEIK
Turning to B5, the binding result in assay [6] is “binds”.
